{
  "source": "paper PMC8786865",
  "biological_target": "SARS-CoV-2 spike protein receptor-binding domain (RBD) (SARS-CoV-2) (UniProt P0DTC2)",
  "assay": "SPR",
  "data": [
    {"substance": "CR3022", "values": [
      {"measurement": "Kd", "value": 0.011, "unit": "µM"}
    ]}
  ]
}
